Experimental data as given in US20250164464A1, “LIVER ORGANOID-DERIVED CULTURED HEPATOCYTES” (OSAKA UNIVERSITY, priority 2022, published 2025).

Assays:
hepatic organoid cells [1] = assay: Screening of monolayer culture conditions, ninth day of culture, quantitative RT-PCR (Example 4); type: cell-based, human; conditions: EMTi and FGF19 (100 ng/mL)
Experimental: The medium was replaced with a new one on the third day of the culture, and the cells were differentiated with the HCM™ medium having added thereto the EMTi and FGF19 (100 ng/mL) until the sixth day of the culture.
The respective gene expression levels of ALB and CYP3A4 serving as liver cell markers after 9 days of two-dimensional culture were analyzed by a quantitative RT-PCR method.
(§1) The respective gene expression levels of ALB and CYP3A4 were measured by a quantitative RT-PCR method for the respective cells after their culture. A gene expression level when the hepatic organoid cells were cultured only with the HCM™ medium having added thereto the above-mentioned EMTi was defined as a vehicle. Comparison was performed while the gene expression level of ALB of the cells cultured with the HCM™ medium having added thereto the EMTi and FGF19 (100 ng/mL) on the sixth day of the culture was defined as 1.0.

hepatic organoid cells [2] = assay: Screening of monolayer culture conditions, sixth day of culture, quantitative RT-PCR (Example 3); type: cell-based, human; conditions: versus third day of culture
Experimental: Culture conditions up to the sixth day of culture when hepatic organoid cells were subjected to monolayer culture with a HCM™ medium having added thereto each of various factors were investigated in the same manner as in each of Examples 1 and 2.
The hepatic organoid cells were seeded at 3.0×10^5 cells/well on a collagen-coated 48-well plate, and were differentiated with the HCM™ medium having added thereto the EMTi and BMP7 (50 ng/mL) described in Example 2 until the third day of the culture. […] The respective gene expression levels of ALB and CYP3A4 serving as liver cell markers after 6 days of two-dimensional culture were analyzed by a quantitative RT-PCR method. As a comparative example, the gene expression levels of PHHs cultured only with the HCM™ medium and iPS-HLCs were also identified in the same manner as in Example 1.
as §1, with “cultured by using” for “cultured with the HCM™ medium having added thereto”, “and BMP7 (50” for “and FGF19 (100”, “ng/mL) in combination” for “ng/mL)”, “the third” for “the sixth”

CYP1A2 = assay: Induction of drug-metabolizing enzyme in hepatocytes (2D differentiated cells) (Example 6); type: cell-based, human; conditions: 50 μM for 24 hours; added on third, sixth or ninth day of culture; control DMSO
Experimental: (§2) In this Example, the hepatocytes (2D differentiated cells) of the present invention were evaluated for the induction of a drug-metabolizing enzyme on the third day, sixth day, and ninth day of their culture (FIG. 6A). […] After that, the ΔCt value ((Ct value of GAPDH)-(Ct value of target gene)) of each CYP gene was measured for each cell. As a control, dimethylsulfoxide (DMSO) serving as a solvent for each metabolizing enzyme activator was added thereto.

CYP2B6 = assay: as above; conditions: 1 mM for 24 hours; added on third, sixth or ninth day of culture; control DMSO
Experimental: as §2

hepatic organoid cells [3] = assay: Screening of monolayer culture conditions, third day of culture, EMTi and humoral factors, quantitative RT-PCR (Example 2); type: cell-based, human; conditions: combined use of EMTi and BMP7 (50 ng/mL); 72 hours; vehicle (EMTi only)=1.0

fibroblast growth factor 19 [FGF19]
gene expression level of CYP3A4 increased by a factor of (hepatic organoid cells [1]; versus sixth day of culture): about 40 | gene expression level of ALB (hepatic organoid cells [1]; versus sixth day of culture (=1.0)): increasing tendency | gene expression level of CYP3A4 increased by a factor of (hepatic organoid cells [2]; EMTi and FGF19 (100 ng/ml)): about 95

COc1ccc2[nH]c([S+]([O-])Cc3ncc(C)c(OC)c3C)nc2c1 (stereo not shown) [omeprazole]
gene expression level of CYP1A2 (ΔCt value) (CYP1A2): further enhanced

CCC1(c2ccccc2)C(=O)NC(=O)NC1=O [phenobarbital]
gene expression level of CYP2B6 (ΔCt value) (CYP2B6): further enhanced

B1: bone morphogenetic protein 7 (protein, UniProt P18075 293-431, looked up)
Bone morphogenetic protein 7: STGSKQRSQNRSKTPKNQEALRMANVAENSSSDQRQACKKHELYVSFRDLGWQDWIIAPEGYAAYYCEGECAFPLNSYMNATNHAIVQTLVHFINPETVPKPCCAPTQLNAISVLYFDDSSNVILKKYRNMVVRACGCH
notes: recombinant protein added as a humoral factor
gene expression level of CYP3A4 increased by a factor of (hepatic organoid cells [2]; EMTi and BMP7 (50 ng/ml)): about 50 | gene expression level of CYP3A4 increased by a factor of (hepatic organoid cells [3]): 50
